Measurements published in US20230279125A1 (published 2023).

T1: extracellular domain of human IL28RA (human, UniProt Q8IU57 21-228)
T1 construct: Plates were 'coated with IL28RA'; also called hIL28RA ECD antigen; hIL28RA
T1 sequence: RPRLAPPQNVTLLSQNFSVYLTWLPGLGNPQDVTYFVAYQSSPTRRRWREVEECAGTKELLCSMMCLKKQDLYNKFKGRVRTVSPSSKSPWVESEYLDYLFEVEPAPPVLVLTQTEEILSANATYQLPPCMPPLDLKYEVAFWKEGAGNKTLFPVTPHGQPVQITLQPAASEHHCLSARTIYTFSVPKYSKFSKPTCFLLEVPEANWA


Biological target: T1, extracellular domain of human IL28RA
Assay: periplasmic extract ELISA on IL28RA-coated plates, A450 at least threefold over PBS-coated control
Procedure: Upon completion of the biopanning of Example 3, three 96-well plates of individual phage clones were isolated in order to perform periplasmic extract ELISA (PE-ELISA) on IL28RA coated plates to identify positive VHH binders that selectively bound IL28RA . A 96-well plate was coated with IL28RA and PBS under the same conditions. Next, wells were blocked at 37° C. for 1 h. Then, 100 µl of extracted antibodies was added to each well and incubated for 1 h. Subsequently, 100 µl of anti-tag polyclonal antibody conjugated to HRP was added to each well and incubated at 37° C. for 1 h. Plates were developed with TMB substrate. The reaction was stopped by the addition of H2SO4. Absorbance at 450 nm was read on a microtiter plate reader. […] Positive clones were sequenced, and sequences analyzed to identify unique clonotypes

| Binder | binding result |
| --- | --- |
| hIL28RA VHH8 (VHH, not shown: large carriers, Camel VHH tested as periplasmic extract of a phage clone (PE-ELISA); also called anti-human IL28RA VHH) VHH: QVQLQESGGGSVQAGGSLRLSCAVSRYTISRSDCMGWFRQAPGKEREGVARIGSDGTTSYADSVKERFTISKDNAKNILYLQMNSLKPEDTARYYCAATALLLGRGSACHKEVSVFSWWGQGTQVTVSS | binds |
| hIL28RA VHH3 (VHH, not shown: large carriers, Camel VHH tested as periplasmic extract of a phage clone (PE-ELISA); also called anti-human IL28RA VHH) VHH: QVQLQESGGGLVQPGGSLRLSCVASGFTFSDYAMSWVRQAPGMGLERVSAIGRDGSTFYPDSVKGRFTISRDNAKNTLYLQLNSLKTEDTAMYYCAKEEPGSSSRGQGTQVTVSS | binds |
| hIL28RA VHH6 (VHH, not shown: large carriers, Camel VHH tested as periplasmic extract of a phage clone (PE-ELISA); also called anti-human IL28RA VHH) VHH: QVQLQESGGGLVQPGGSLRLSCAASGFTFSDYAMSWVRQAPGMGLERVSAIGRDGSTFYPDSVKGRFTISRDNAKNTLYLQLNSLKTEDTAMYYCAKEEPGSSSRGQGTQVTVSS | binds |
| hIL28RA VHH11 (VHH, not shown: large carriers, Camel VHH tested as periplasmic extract of a phage clone (PE-ELISA); also called anti-human IL28RA VHH) VHH: QVQLQESGGGSVQSGGSLRLSCAASGFTYSSYCMGWFRQAPGKEREGVAAIDSDGSTSYADSVKGRFTISKDNAKNTLYLQMNSLRPEDTAMYYCAADGEYNDYVCWSTGLRYRGQGTQVTVSS | binds |
| hIL28RA VHH5 (VHH, not shown: large carriers, Camel VHH tested as periplasmic extract of a phage clone (PE-ELISA); also called anti-human IL28RA VHH) VHH: QVQLQESGGGLVQPGGSLRLSCAASGFTFSNATMSWVRQAPGKEIEWVSAISNSRGTKYYAAFVKGRFTISRDNAKNTLYLQLNNLKTEDTAMYYCTKDWKTSYSDYDLSDGQGTQVTVSS | binds |
| hIL28RA VHH13 (VHH, not shown: large carriers, Camel VHH tested as periplasmic extract of a phage clone (PE-ELISA); also called anti-human IL28RA VHH) VHH: QVQLQESGGGLVQPGSSLRLSCAASGFTFSNATMSWVRQAPGKEIEWVSAISNSRGTKYYAAFVKGRFTISRDNAKNTLYLQLNNLKTEDTAMYYCTKDWKTSYSDYDLSDGQGTQVTVSS | binds |
| hIL28RA VHH1 (VHH, not shown: large carriers, Camel VHH tested as periplasmic extract of a phage clone (PE-ELISA); also called anti-human IL28RA VHH) VHH: QVQLQESGGGSVQAGGSLRLSCASSGYISSSYCMAWFRQAPGKEREGAAGVTRDGKTYYGDSVKGRFAISRDNAKNTLYLQMNSLKPEDTAMYYCAAGPPPCITSMPAGGDYGYRYWGQGTQVTVSS | binds |
| hIL28RA VHH14 (VHH, not shown: large carriers, Camel VHH tested as periplasmic extract of a phage clone (PE-ELISA); also called anti-human IL28RA VHH) VHH: QVQLQESGGGSVQAGGSLRLSCASSGYISRSSYCMGWFRQAPGKEREVAAIVTGDGRTYYGDSVKGRFAISRDNAKNTLYLQMNSLKPEDTAMYYCVAGPPPCITTMPAGGDYGYRYWGRGTQVTVSS | binds |
| hIL28RA VHH4 (VHH, not shown: large carriers, Camel VHH tested as periplasmic extract of a phage clone (PE-ELISA); also called anti-human IL28RA VHH) VHH: QVQLQESGGGSVQLGGSLRLSCLVSGSTDNIKYMGWFRQAPGKEREGVAAVYTSGGAVVYADSVKGRFTISQDDAKNTMYLQMNSLKPEDTAMYYCAASRAPAPPRLLLQRALVEYWGQGTQVTVSS | binds |
| hIL28RA VHH7 (VHH, not shown: large carriers, Camel VHH tested as periplasmic extract of a phage clone (PE-ELISA); also called anti-human IL28RA VHH) VHH: QVQLQESGGGLVQPGGSLRLSCAASGFTFSNYGMSWVRQAPGKGLEWVSGINSGGDDTFYTDSVKGRFTISRDNAKNTLYLQMNSLKTEDTAMYYCAMGASGMIPRGQGTQVTVSS | binds |
| hIL28RA VHH9 (VHH, not shown: large carriers, Camel VHH tested as periplasmic extract of a phage clone (PE-ELISA); also called anti-human IL28RA VHH) VHH: QVQLQESGGGLVQPGGSLRLSCAASGFTFSNYGMSWVRQAPGKGLEWVSGINSGGDDTFYTDSVKGRFTISRDNVKNTLYLQMNSLKTEDTAMYYCAMGASGMIPRGQGTQVTVSS | binds |
| hIL28RA VHH2 (VHH, not shown: large carriers, Camel VHH tested as periplasmic extract of a phage clone (PE-ELISA); also called anti-human IL28RA VHH) VHH: QVQLQESGGGLVQPGGSLRLSCAASGFTFSNYGMSWVRQAPGKGLEWVSGINSGGDDTFYTDSVKGRFTISRDNAKNTLYLQMNSLKTEDTAMYYCAMGASGMIPRGQGTQITVSS | binds |
| hIL28RA VHH10 (VHH, not shown: large carriers, Camel VHH tested as periplasmic extract of a phage clone (PE-ELISA); also called anti-human IL28RA VHH) VHH: QVQLQESGGGSVQAGGSLRLSCASSGYISSRSTYCMGWFRQAPGKEREVAAVVTGDSRTYYGDSVKGRFAISRDNAKNTLYLQMNSLKPEDTAMYYCAAGPPPCITTMPAGGDYGYRYWGQGTQVTVSS | binds |
| hIL28RA VHH12 (VHH, not shown: large carriers, Camel VHH tested as periplasmic extract of a phage clone (PE-ELISA); also called anti-human IL28RA VHH) VHH: QVQLQESGGGSVQAGGSLRLSCASSGYISSRSTYCMGWFRQAPGKEREVAAIVTGDSRTYYGDSVRGRFAISRDNAKNTLYLQMNSLKPEDTAMYYCAAGPPPCITSMPAGGDYGYRYWGQGTQVTVSS | binds |
